Patent US20030092616A1, “STAT6 activation gene” (priority 2001, published 2003)

B1: 50 (nucleic acid, listed as Homo sapiens)
chain: AATTCAACATGGCAGCCATGCGCTGGCGATGGTGGCAGCGGCTGTTACCTTGGAGGTTGCTGCAGGCCCGTGGCTTTCCACAAAATTCTGCACCCAGCCTGGGCCTAAGAGCGAGGACTTATTCCCAGGGCGACTGCTCGTATTCGCGCACGGCGCTGTATGATCTGCTCGGCGTCCCCTCCACAGCCACGCAGGCCCAAATCAAGGCGGCTTACTACCGTCAGTGCTTTCTCTACCACCCGGACCGCAACTCCGGGAGCGCGGAGGCCGCCGAGCGCTTCACGCGCATCTCCCAGGCCTACGTGGTGCTGGGCAGTGCCACCCTCCGTCGCAAGTATGATCGCGGCCTACTCAGCGACGAGGACCTGCGCGGACCTGGCGTCCGGCCCTCCAGGACGCCCGCACCCGACCCCGGCTCGCCGCGTACCCCGCCGCCCACCTCTCGGACCCACGACGGTTCTCGGGCCTCCCCCGGCGCCAACCGCACGATGTTCAACTTTGACGCCTTCTACCAGGCCCACTACGGGGAACAACTGGAGCGGGAACGGCGCCTGAGGGCCCGGCGGGAGGCCCTTCGCAAACGGCAGGAGTATCGGTCCATGAAAGGCCTCCGCTGGGAGGATACCCGAGACACGGCTGCCATTTTCCTCATCTTTTCAATCTTCATCATCATCGGCTTTTATATTTAATCGGAGAGAGAAGGGAAGGGGAGTGTCCCCAGCCAACCCCCCAGAAACGGCCTTTTTTCCTGCCTCTGAACCCTTGGCCGTTGATAGTCTACCTTTGCTGGGATCCGAAGGAACTGTACTCCCCCTGCCCTCCCCGACCCGCCCAGCTTAGCCGATGACCTGCACATCGCTCCACTGTGGTCCAGAAAAGGAGGCCTTTCGATGTCTGAGAAAGAGGCCCCACGCTGTAGAGTCCCGAAAGCCCAGGAGTGAAGGGGGTTCCTGGAGTCTCTAGGGTGCTTCTTCCAGAGTCTGTCTTCTTGCTTCCAGATGTGGTCAACTTCTGGAACACTCGCTGTAGCTTTATTGTTTAGCCCCAAGCAAGATTTATCTCCTCCTGCCCCGCATGTGTATGGTGGGCCTCTGTAACCTTGAAATGTGCAATGTGACCAATTGTTGACTACCAAAAGAAAAGGTCTGGGGTTGT
modifications: CDS (9)..(686)
B2: 241 (nucleic acid, listed as Homo sapiens)
chain: GGGGTGTCCAGTTGGTTGCCGCGGCAGTCTCTCCGAGCAGCGCATTTGTCTTCTAGGCTGCTTGGTTCGTGCCTCCGAGAAAGGGGTCTCCTGCTGCCAGCTAAGTGTGGGAGAACTTGTGCACGTATCTCCCCTCCGAATCCCAACGATGGGTAACGCCAGCTTTGGCTCCAAGGAACAGAAGCTGCTGAAGCGGTTGCGGCTTCTGCCCGCCCTGCTTATCCTCCGCGCCTTCAAGCCCCACAGGAAGATCAGAGATTACCGCGTCGTGGTAGTCGGCACCGCTGGTGTGGGGAAAAGTACGCTGCTGCACAAGTGGGCGAGCGGCAACTTCCGTCATGAGTACCTGCCGACCATTGAAAATACCTACTGCCAGTTGCTGGGCTGCAGCCACGGTGTGCTTTCCCTGCACATCACCGACAGCAAGAGTGGCGACGGCAACCGCGCTCTGCAGCGCCACGTTATAGCCCGGGGCCACGCCTTCGTCCTGGTCTACTCAGTCACCAAGAAGGAAACCCTGGAAGAGCTGAAGGCCTTCTATGAGCTGATCTGCAAGATCAAAGGTAACAACCTGCATAAGTTCCCCATCGTGCTGGTGGGCAATAAAAGTGATGACACCCACCGGGAGGTGGCCCTGAATGATGGTGCCACCTGTGCGATGGAGTGGAATTGCGCCTTCATGGAGATTTCAGCCAAGACCGATGTGAATGTGCAGGAGCTGTTCCACATGCTGCTGAATTACAAGAAAAAGCCCACCACCGGCCTCCAGGAGCCCGAGAAGAAATCCCAGATGCCCAACACCACTGAGAAGCTGCTTGACAAGTGCATAATCATGTGAGCCCTGGGCCTTAAGAGCCAGCTCTTCCTATCCTGTAGCGTGTAGAAAACGTGGACTCATTTCACTATGTTACATGTACATGGTTGATTTTGTGCTGTTGTTTGGACTGTAACATCCATGTTGTCAATACGTATACCTTGTAAGTGGATAACTTTTCTTTTTCCCAGGCCAGAGAATTCAAATTGTTAAAACATTGGCATTTGAAGAGGAGAACAAAATGTAGCATGATGTATTTAAAGTAAGGCCTTTAGTAATGAATGTAATGAGAGAAAATGTTTTGAAAAGAACAAAACATCAAAATGAATAGAAAGAAAAATTGGAAGGCGTCCTTTTGGTAACCCGATTATTGTGTATTACCTTTAAATATTTCACATCCTGTAAGTGCTTAATCATATCTTTTAATTGTGTATTTAAGAAAAGTGTTTTCACAACAAAAGCTTTTGATAAATTGCTGCGTGACATATACTAAATAAAAAAATGAATATGTTGATCATTAGGGGTGTGGGAGCAGAGAAAATTGTGAAAGTGACTCTCACTAAAGATGTTAGTAGTTTCTCATGTCATTTAAAAATGTTTGAGTATTCTGCATAGCAGTTTGTAAAAGTGTAACAGCTTATTGACTTAATAAAGCTTTTCCTGCATGC
modifications: CDS (149)..(835)
B3: 56 (nucleic acid, listed as Homo sapiens)
chain: AGAGCCGCCGCCCAGGAAGGGGATGCGGAAACCCCTGGCTCGGTGGAGCGGAGAGGCAGGCGGGCAGGAGCCGAGGACGGCATGTCCCAGGCCCCGGGAGCACAGCCGAGCCCACCCACCGTGTACCACGAACGGCAGCGCCTGGAGCTGTGTGCTGTCCACGCCCTCAACAACGTTCTGCAGCAGCAGCTCTTTAGCCAGGAGGCTGCCGATGAGATCTGCAAGAGGTTGGCCCCAGACTCCCGGCTGAACCCTCATCGCAGCCTCCTGGGCACCGGCAACTATGATGTCAATGTGATCATGGCCGCTCTGCAGGGGCTGGGCCTGGCCGCCGTGTGGTGGGACAGGAGGAGGCCCCTGTCCCAGCTGGCCCTGCCCCAGGTACTGGGGCTGATCCTGAACCTGCCCTCGCCCGTGTCGCTGGGGCTGCTGTCACTGCCGCTGCGCCGGCGGCACTGGGTGGCCCTGCGCCAGGTGGACGGTGTCTACTACAACCTGGACTCCAAGCTGCGGGCGCCCGAGGCCCTGGGGGATGAGGACGGAGTCAGGGCCTTCCTGGCGGCTGCGCTGGCCCAGGGCCTGTGCGAGGTGCTGCTGGTAGTGACCAAGGAGGTGGAGGAGAAGGGCAGCTGGCTGCGGACAGACTGACCATGGCTGACCATCGGCGCCCACAGCGCAGTCCCTGCGCATCCCCCTCCGGCTGCGCACACTGCATGCCTGGGAAAGGCCAGCACTTCATGGACCCTGGGGAGGCCCCGCCCCCTCCCCACACCCCTGCTCCCCACTGCCGCTGCTGCCTCAATAAATCTGCTGATTTGCTGCC
modifications: CDS (82)..(645)

Tested on: STAT6
Experiment: Screening of full-length cDNA clones for promotion of STAT6 activation (luciferase reporter N4×8-luc)
Format: cell-based
Details: NIH3T3 cells cotransfected with N4×8-luc reporter and cDNA plasmid; 48 h culture, then mouse IL-4 0.5 ng/ml for 6 h
Method: As a preferable method, NIH3T3 cells are inoculated on 10% FBS (Fetal Bovine Serum)-containing IMDM medium in a 96-well cell culture plate to a final cell density of 1×10^4 cells/well, and cultured for 24 hours at 37° C., in the presence of 5% CO2. Then, the luciferase reporter plasmid N4×8-luc which has a STAT6 response sequence, and the expression vector are cotransfected into the cells in a well using FuGENE 6 (Roche). After 48 hours of culture at 37° C., in the presence of 5% CO2 mouse IL-4 (Immuno Biological Laboratories Co., Ltd.) is added to a final concentration of 0.5 ng/ml. After culturing for further 6 hours, promoting activity for STAT6 activation is then measured by measuring luciferase activity using a long term luciferase assay system, Picagene LT2.0 (Toyo Ink Mfg). For example, luciferase activity can be measured using PerkinElmer's Wallac ARVOTMST 1420 MULTILABEL COUNTER. The method for gene introduction by FuGENE6, and measurement of luciferase activity by Picagene LT2.0 can be performed respectively according to the attached protocols. In a method of gene introduction with a 96-well plate using FuGENE6, the amount of FuGENE6 per 1 well is suitably 0.3 to 0.5 μl, preferably 0.3 μl; the amount of N4×8-luc reporter plasmid is suitably 50 to 100 ng, preferably 100 ng; and the amount of expression vector is suitably 50 to 100 ng, preferably 100 ng. An ability (action) to promote STAT6 activation refers to an ability to increase the reporter activity (luciferase activity) relative to the control experiment (for cells into which the reporter gene and a null vector were introduced). Increase in reporter activity is preferably by a factor of 1.5 or more, more preferably by a factor of 3 or more, and still more preferably by a factor of 6 or more.
NIH3T3 cells (purchased from Dainippon Pharmaceutical) were grown to 1×10^4 cells/well in a 96 well plate for cell culture for 24 hours at 37° C. (in the presence of 5% CO2) using 10% FBS containing IMDM medium. Then, 100 ng of luciferase reporter plasmid N4×8-luc having a STAT6 response sequence and 2 μl of the full-length cDNA prepared in above Example 1.(3) were cotransfected into the cells in a well using FuGENE 6 (purchased from Roche) according to the manufacturer's protocol. The luciferase reporter plasmid N4×8-luc having the STAT6 response sequence was constructed as follows. […] 157, 2058-2065 (1996)], oligonucleotides having the following sequences were synthesized:
The synthesized oligonucleotides were dissolved in sterile water to be 1μg/μl, respectively, mixed in 10 μl lots, and adjusted the volume to 32 μl with sterile water. The solution was heated for 5 min at 90° C., and gradually cooled down to room temperature to prepare a double-stranded oligonucleotide solution. The solution was reacted with T4 polynucleotide kinase (Takara Shuzo) according to the attached manual, then the reaction product was purified in a usual manner. Separately, SV40 promoter region of pGL3-Promoter vector (Promega) was replaced by the HSV thymidine kinase promoter sequence (from −50 to +10) with Hind III site and BglII site to construct a vector tk-luc. The aforesaid double-stranded oligonucleotide fragments were inserted into the XhoI site of this tk-luc vector using T4 DNA ligase (GIBCO/BRL). The obtained clones were sequenced according to a usual method, and clones in which plural oligonucleotide fragments were inserted were selected. […] The four-interlinked DNA fragments were excised from the N4×4-luc with a XhoI and a BglII site and purified to be inserted into a BamHI and a XhoI site of pBluescript II KS+ (Stratagene). The four-interlinked DNA fragments were excised from this plasmid with KpnI and SpeI and inserted into a KpnI and a NheI site of N4×4-luc plasmid to finally obtain N4×8-luc.

| Molecule | Activity = (luciferase activity of the gene of each SEQ ID NO:)/(luciferase activity of pME18S-FL3) |
| --- | --- |
| B1 | 18.5 |
| B2 | 54.3 |
| B3 | 4.7 |
